{
  "source": "paper PMC9609006",
  "proteins": {"B1": {"name": "HorGH1 (Halothermothrix orenii H 168; E166A/E354G/M299R) (protein)", "chain": "MAKIIFPEDFIWGAATSSYQIEGAFNEDGKGESIWDRFSHTPGKIENGDTGDIACDHYHLYREDIELMKEIGIRSYRFSTSWPRILPEGKGRVNQKGLDFYKRLVDNLLKANIRPMITLYHWDLPQALQDKGGWTNRDTAKYFAEYARLMFEEFNGLVDLWVTHNAPWVVAFEGHAFGNHAPGTKDFKTALQVAHHLLLSHGMAVDIFREEDLPGEIGITLNLTPAYPAGDSEKDVKAASLLDDYINAWFLSPVFKGSYPEELHHIYEQNLGAFTTQPGDMDIISRDIDFLGINYYSRRVVRHKPGDNLFNAEVVKMEDRPSTEMGWEIYPQGLYDILVRVNKEYTDKPLYITGNGAAFDDKLTEEGKIHDEKRINYLGDHFKQAYKALKDGVPLRGYYVWSLMDNFEWAYGYSKRFGLIYVDYENGNRRFLKDSALWYREVIEKGQVEAN"}, "B2": {"name": "HorGH1 (Halothermothrix orenii H 168; E166A/E354G) (protein)", "chain": "B1 chain with R299M"}},
  "key": {"[1]": {"substrate": "O=[N+]([O-])c1ccc(S)cc1", "assay": "purified protein", "conditions": "thioglycosynthase reaction; thiol acceptor; donor α-D-glucopyranosyl fluoride"}, "[2]": {"substrate": "OC[C@H]1O[C@H](F)[C@H](O)[C@@H](O)[C@@H]1O", "assay": "purified protein", "conditions": "thioglycosynthase reaction; glycosyl donor; thiol acceptor p-nitrothiophenol"}},
  "note": "Numbering of substitutions follows the chain as printed. Numbers in names are those of the source.",
  "data": [
    {"protein": "B1", "values": [
      {"measurement": "Km", "setting": "[1]", "result": 3.82, "unit": "mM"},
      {"measurement": "Km", "setting": "[2]", "result": 2.26, "unit": "mM"}
    ]},
    {"protein": "B2", "values": [
      {"measurement": "Km", "setting": "[1]", "result": 7.46, "unit": "mM"},
      {"measurement": "Km", "setting": "[2]", "result": 2.12, "unit": "mM"}
    ]}
  ]
}
